The values below come from the domain aggregation screens of Martell et al. (2025).

This series is described as follows: soluble fraction after stress (log2 fold change); higher = more stays soluble; pooled small domains, quantitative proteomics. Conditions: stress: 50 degC. The gist of the method: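 Pooled custom libraries of small protein domains were each held under stress at 50°C. The read-out, high-throughput quantitative proteomics, tracked how much of each protein stayed soluble. This is reported as a base-two log fold change used to indicate aggregation propensity. Higher values mean more protein remains in solution.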
Take “HMSSFFLIDVSQVRIGMYIQLDVGWMRHPFPVNSFRITNQEQLDTLRSLNLAQVRWSPAKSDL”: the “soluble fraction (log2)” value is -3.77.

Turning to “HMATHGRRAVIELREKIVSGELPGGTRLFEVSLAETLDISRTPVREALSRLAEEGLLDRLPNGGFVVRR”, the “soluble fraction (log2)” value is -0.503. The result for “HMEVALEVPELRGLSMKQATNTLMASGFEVQKVGSGTIYAQFPLPGERLRTGYAVTIRGKTRDLG” reads -0.258. The result for “HMSPSTNKTFSFSKENISIGQTVFIKKLNQNATVLTLPNKSNQLQVQFGVITMNVKLEDLALPTN” reads -0.171; that for “HMDKGQRGWINLVSVPTARVIIDGYDTGHETPLYGYEVERGKRKVTLISLDGTYERTYEIRIEPGTTTRVR”, -0.775; that for “HMSVTVMVLRAAGDIQAGTEITDKHLATVEVGEYGLPEGIINDKDSILGKIALTDIAKGDYFFSQKLG”, -0.134.

In the case of “HMSTPAKVTPTNPIVKQLFNAAETQIKNKDIQNAIASYEKADTLTTDEKVKQYIHYQLSTLKDDN”, the “soluble fraction (log2)” value was -0.14. As for “HMNQNIYVPKLEGLQIEEASSILKSKGLNIEITDSIFRKDAVPGAIIEQTPKPNSRVKTGRNIYVSIYSK”, the figure is -0.0536. As to “HMNLPISDREKELLTLLSKGLLYKEIASKLDITIGTVKQHIHNIYHKLHVSNKTEALNLFNK”, the “soluble fraction (log2)” value was -0.685. Take “HMGIKDRIVYIMEKEKLSIPLFAKKIGIGPSTLLHIIRGKNAPSLQVVQAIHKAYPDIDLNWLI”: the “soluble fraction (log2)” value is -1.08.

Turning to “HMLEIQENFQNILKRMELSLSPLERRVLALYLSGYERSEIPEKTGIPLKTFDNALHRVRNKMK”, the “soluble fraction (log2)” value was -1.53. As for “HMQTMNKTNISNFEKYLNSGDVSEVIVVRNKSSVRVTLTPEALRSSEHQAVVGKNILGQENIKGPHYQFEV”, the figure is -0.0672. On to “HMPPHGHIVELLPEQDFGRIETGDGRLVYFHRNSVLDGDFAQLAVGDAVRFAEEMGERGPQASSVHVE”, for which the “soluble fraction (log2)” value was 0.0967. In the case of “HMNYEFLEKIGFSSNEAKVYGTLIKHKVLNGYEIAKLSGVARSLVYEVINRLVAKGAVIRIDGEPNFYKP”, the “soluble fraction (log2)” value is -1.8. The result for “HMETLSKVGSTGSEVRQIQTKLKNWGYFSDKVDGIYGEKTRAAVVWFQKKNGLTADGIAGPATLKAMGIYT” reads -0.171; that for “HMNNDIDRVFAELTVLSQKKGYLVFDDIEKGTEDLSVNEVDWLTNRLLTSGVEIFDDVPDTIK”, -0.205. As for “HMRSREGVRWIIRERIMEELQERHHMDDGELLEMIDRSIGEMGQEIFLPLKERIWLRGSLFDSFR”, the figure is -3.1; as for “HMSRSLEIDVLVKALLEQDRRKFMLVTDGTADVTVRYNNALPSLFREGQGVVAEGLMDNGKFIATNVLAK”, -0.631. The result for “HMRASQGRNELILSLLRGHELSILELLEGLEKQGVRVARPTLTKDLNELVSRGSVEATAPPRSKNRTYRIP” reads -0.612. Regarding “HMGSEYILTIIPTPADATVFINGVKKNSASGVNGQILSWEVTKEGYIPQSGTFTINGKNETIEVVLQPQT”, the “soluble fraction (log2)” value is 0.00105. As for “HMNQILDFTREVKNLPEQDKIKIVEALWSIIYSNKDADIYETNLMRRLAGLLYIDNKTMGDIKEKIKQNL”, the figure is -0.601; as for “HMRRPRGVFNLVPRGFKRFGFITPDGGGEDMFAHLENVRAGHVVEDRNAVEYGIGRGPDGRDQAVDIVPVP”, 0.049; as for “HMVERRVRFTVAPGNAGLRLDLFLTAREIGLSRTQVGRAVDEGQIQVNGRPGRAGRKLKTGDVVAIVLPA”, -0.783. The result for “HMWQPIKLDRGDWQNSLQVGDRVFVRGIPRPVEILSAVDEENNIEVLMGTMRAKIPVYQLDKPAENFIDTT” reads -0.15. The result for “HMANLNFDMSQIVASRYQEKAAELGVTAPSLARTDYNTQEQATYEFVAREIIADYYDDRVAPFNDLIPE” reads -0.223.

Take “HMKQTDQELAEMLRFRAAQRGLLMSDEVVNYVMTRVERSAKSLIMLLDRIDRAALAQARPVTIPLINEL”: the “soluble fraction (log2)” value was -0.499. The result for “HMAKRKTEKTSVLEEIDGVGKARARALLARFGGLSGVKAASPEELRTVRGITPEIAENIRRYFQ” reads 0.121; that for “HMKDLQAISERMEEIISFAKANDNEISLFIVQDIIKNKKTGIDEDLLNMALYQIKEQGIKVLPA”, -0.0793; that for “HMEDNLVTYPNPTSDYIYVSKKVDLTVVNMLGDILIQKQNINVLDVTELTPGMYTIVIRYNNVTTNKRIIK”, -0.372.

On to “HMNELPSVIIMKNGRTRPYELQEISKDEEWLNQTIREHGIEPKDIFIAEFWDGRTAFILNDGRIVK”, for which the “soluble fraction (log2)” value is -0.555. As for “HMQDSIYYAQYRINIRNMPSSEGMVISRASVGEALEVLDWQEQWSKVRKQSGVEGYVASRLLTK”, the “soluble fraction (log2)” value is -1.24. The result for “HMVKLDDLTGQDKASAEAAISNLGLKYSEQQEYSDEIEEGKVTRTDPGAGSTSLKAGDTVTVYISRGPE” reads 0.21; that for “HMAPKRIVLRFGKDISDKPIIYYLVKDYDLVINILKANVNPNKEGTLVLELSGENYDKGIEFLISQGVTVQ”, -1.56; that for “HMRDRYEYLKELRLYLSPLGRTEEDRVIEYYAELIGDKIESGIPENGVLSQLGTPRELADKILAETQEY”, -0.35.

“HMGNNTEITYSEFIRQAEAGNVQYVTVDGEKLLISATDGKSYYTINPRDDQMTDRLLNSGVEIRAEPQ”: the “soluble fraction (log2)” value amounted to 0.101.

For “HMGDLAAAGNHTLEVMGFPQHPDESYRHFVGNGIPKLIERMLPAGHDKETEQKAYDIFMEYYSAHK”, the “soluble fraction (log2)” value was determined as 0.227. In the case of “HMRKAERHLLIKQVIDEFTIRTQEELLAKLSDYGVNATQATISRDIRDLKIVKAPDENGISRFVFF”, the “soluble fraction (log2)” value was -0.964.

“HMPDDHFIRGYVTAVLEQVLKVPSIQVEVERGVVILRGDLPGEERQELLDAVSRIHGVARVEYIPL”: the “soluble fraction (log2)” value is -0.0295. The result for “HMDNFQFIGYSQQQGQIAVAWIKSLDNGRLVRVEVSDSLEGWRVSDISAQGVNLTKGQQWLMLKRL” reads -1.73. As for “HMDTFEITVEESDIDKRIDLFLAGNLESFSRSYIQDLIKKGKATISGKPVKANYRLREGDSVVLSIPKPK”, the figure is -0.227; as for “HMTRLSSREAQVISLVRDGMTNQQIAERLELSPLTIKNHVQNILRKLDVSNRAQAVAKAVKARLI”, -0.3. The result for “HMDLDYSGIMNVLNQKYHITFYNNKKIQNLMPKLMIIMGYNSIINEIGHSKSLKALINSFEEKLKSYILT” reads -3.02; that for “HMQGENDVTIDPKKLTIGDLAKEISKIEDSEELNNILVAEKEGKGRKGAINAITERIENVSGGTG”, 0.133; that for “HMYYTAPDGRKREILDAALRLIAAGGPDSLTYRRVADEAGVPLGSLTYYFEAREDLIREAFRLYIAEASR”, -3.04. With “HMSDTMTVTNVKYAIYLRSTPSEASDANIIMEIPVGSKVTYLDTPNNTFYKISYGGTVGYSKQIYLTF”, the “soluble fraction (log2)” value was -0.836. As for “HMGIYFIIAAKNQENNIEEFIRTTLFRIVYGKEESINNITLVDLKSKDNTKNIMEEIARENENVKV”, the figure is -0.335; as for “HMSDPELAIPRVVGLSGNDAQAALVKAGFSAVTVVTVKNSEVTSEQVTHVVPAEGAKAKASTPVTVVVSSS”, -0.0196; as for “HMTPDVHRGDTITVSLRAGAIRVRVPAKALEEGAAGGEIRVVNLTGGREYRVRVTGPGTAEAIL”, 0.0275. The result for “HMNEKLRNYIDTLFEHAPTTVRAVELKEEMFQNLTDKYNDLIAQGKSEEAAFNIAVASIGDVDSLIAGLS” reads 0.219; that for “HMALKRVAPQGEDKLSAQLDGVEFDKLIPWLGMLEHDHRIAIVNLSIDRANATGLVNARVIL”, -0.0239.
